# Molecular target: T1, SlyA (Shigella flexneri serotype 2a 2457T) (UniProt P0A8W4)
# T1 sequence: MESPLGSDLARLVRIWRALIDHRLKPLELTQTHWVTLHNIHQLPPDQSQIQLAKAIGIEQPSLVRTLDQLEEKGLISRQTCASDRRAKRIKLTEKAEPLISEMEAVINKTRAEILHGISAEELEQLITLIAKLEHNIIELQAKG
# Assay: EMSA
# Details: 10 mM Tris-HCl pH 7.5, 100 mM KCl, 1 mM EDTA, 0.1 mM DTT, 5% glycerol, 10 ug/mL BSA, room temperature 30 min
sequence,measurement,value
CAGTCTGAACGGGGTGTACACGCCGTATATGCAGGATAAACAATAATTAATTTGATCGCCCGAACAGGAATGTTTGGGCGATTTTTATTACGATAATAAAGTCTGTTTTTAATATTATCATGTTAAATGTTTATATTATAAAAAGTCGTTTTTCTGCTTAGGATTTTGTTATTTAAATTAAGCCTGTAATGCCTTGCTTCCATTGCGGATAAATCCTACTTTTTTATTGCCTTCAAATAAATTTAAGGAGTTCGAAATGGACCAGAAGCTGTTAACGGATTTCCGCTCAG (double strand) [PgadA],binding,binds

# — publication PMC6128205
